The source of these data is the Immune Epitope Database (IEDB).

Assay [1] deals with HLA-A*11:01. Nature of the assay: IEDB peptide-MHC binding, purified MHC/competitive/fluorescence; ≥ and ≤ were set here for values at or beyond the usual limits of such assays. As to conditions: source organism: Vaccinia virus Copenhagen.
Assay [2] deals with HLA-A*03:01. Nature of the assay: IEDB peptide-MHC binding, purified MHC/competitive/fluorescence; filed as Kd, often an IC50 or EC50 that approximates it; ≥ and ≤ were set here for values at or beyond the usual limits of such assays. Particulars: source organism: Influenza A virus (A/Puerto Rico/8/1934(H1N1)).
The target in a further assay is HLA-B*51:01. The assay is described as follows: IEDB peptide-MHC binding, purified MHC/competitive/radioactivity; filed as Kd, often an IC50 or EC50 that approximates it; ≥ and ≤ were set here for values at or beyond the usual limits of such assays. As to conditions: source organism: Dengue virus 1 Brazil/97-11/1997.
Another assay addresses HLA-A*01:01. The assay is described as follows: IEDB peptide-MHC binding, purified MHC/direct/fluorescence; filed as Kd, often an IC50 or EC50 that approximates it; ≥ and ≤ were set here for values at or beyond the usual limits of such assays.
For the next assay, the target named is HLA-A*02:01. The assay is described as above.
Assay [3] deals with HLA-A*03:01. The assay is described as above.
Assay [4] addresses HLA-A*11:01. Described as above.
In another assay the target is HLA-A*26:01. Described as above.
For the next assay, the target named is HLA-A*31:01. The description is as above.
The target in a further assay is HLA-A*69:01. Described as above.
For assay [5], the target named is HLA-B*07:02. The description is as above.
For another assay, the target named is HLA-B*08:01. Described as above.
In the next assay the target is HLA-B*15:01. The assay is described as above.
A further assay deals with HLA-B*27:05. The assay is described as above.
Another assay has as its target HLA-B*40:01. The assay is described as above.
A further assay deals with HLA-B*44:02. The assay is described as above.
A further assay concerns the target HLA-B*58:01. The assay is described as above.
The target in the next assay is HLA-B*35:01. Nature of the assay: IEDB peptide-MHC binding, purified MHC/competitive/radioactivity; filed as Kd, often an IC50 or EC50 that approximates it; ≥ and ≤ were set here for values at or beyond the usual limits of such assays.
The next assay deals with HLA-B*53:01. The assay is described as above. Particulars: source organism: Dengue virus 1 Brazil/97-11/1997.
The target of another assay is HLA-B*39:01. Nature of the assay: IEDB peptide-MHC binding, purified MHC/competitive/fluorescence; filed as Kd, often an IC50 or EC50 that approximates it; ≥ and ≤ were set here for values at or beyond the usual limits of such assays. As to conditions: source organism: Pseudomonas aeruginosa PAO1.
For assay [6], the target named is HLA-B*07:02. Nature of the assay: IEDB peptide-MHC binding, purified MHC/competitive/radioactivity; filed as Kd, often an IC50 or EC50 that approximates it; ≥ and ≤ were set here for values at or beyond the usual limits of such assays. As to conditions: source organism: Dengue virus 1 Brazil/97-11/1997.
Setting [7] is: source organism: Salmonella enterica.
Where [8] appears, read: source organism: Dengue virus 1 Brazil/97-11/1997.
Setting [9] is: source organism: Pseudomonas aeruginosa.
Setting [10] is: source organism: Giardia lamblia ATCC 50803.

As usually defined, the IC50 is the concentration that inhibits the measured activity by half. A low value points to inhibition by little substance. As for KDESIFINK, the IC50 in the assay with HLA-A*11:01 [1] is at least 82.6 µM.

The term Kd denotes a measure of binding affinity in units of concentration. In the assay with HLA-A*03:01 [2], CIYRRFKYGLK yielded a Kd of 0.0056 µM.

For the sequence LALGCYSQV, in the assay with HLA-B*51:01, the Kd is 0.567 µM.

For the sequence EEQTDPKTL, the Kd with HLA-A*01:01 (setting [7]), with HLA-A*02:01 (setting [7]), with HLA-A*03:01 [3] (setting [7]), with HLA-A*11:01 [4] (setting [7]), with HLA-A*26:01 (setting [7]) and with HLA-A*31:01 (setting [7]) was at least 20 µM throughout. Further, the Kd is at least 20 µM in the assay with HLA-A*69:01 (setting [7]); at least 20 µM with HLA-B*07:02 [5] (setting [7]); at least 20 µM with HLA-B*08:01 (setting [7]); at least 20 µM with HLA-B*15:01 (setting [7]); at least 20 µM with HLA-B*27:05 (setting [7]); 7.33 µM with HLA-B*40:01 (setting [7]). For the same sequence, the Kd with HLA-B*44:02 (setting [7]) and with HLA-B*58:01 (setting [7]) was at least 20 µM each time.

Regarding LPVWLAYKVA, the Kd with HLA-B*35:01 (source organism: Dengue virus 2 Peru/IQT2913/1996) amounted to 5.09 µM.

For LPDTIETLML, the Kd with HLA-B*35:01 (setting [8]) came to 0.578 µM; with HLA-B*51:01 it was 19.3 µM; with HLA-B*53:01 it was 0.297 µM.

For the sequence SEYKAAGYL, the dissociation constant Kd with HLA-A*01:01 (setting [9]), with HLA-A*02:01 (setting [9]), in the assay with HLA-A*03:01 [3] (setting [9]), with HLA-A*11:01 [4] (setting [9]), with HLA-A*26:01 (setting [9]) and in the assay with HLA-A*31:01 (setting [9]) was at least 20 µM in each case. Moreover, the Kd with HLA-A*69:01 (setting [9]) was at least 20 µM; with HLA-B*07:02 [5] (setting [9]) it was at least 20 µM; in the assay with HLA-B*08:01 (setting [9]), at least 20 µM; with HLA-B*15:01 (setting [9]), at least 20 µM; with HLA-B*27:05 (setting [9]) it was at least 20 µM; in the assay with HLA-B*40:01 (setting [9]), 0.0196 µM. Moreover, the Kd with HLA-B*58:01 (setting [9]) and in the assay with HLA-B*39:01 was at least 20 µM in each case.

On to AEFWDVFLS, for which the Kd in the assay with HLA-A*01:01 (setting [10]), with HLA-A*02:01 (setting [10]), with HLA-A*03:01 [3] (setting [10]), in the assay with HLA-A*11:01 [4] (setting [10]), in the assay with HLA-A*26:01 (setting [10]) and with HLA-A*31:01 (setting [10]) was at least 20 µM throughout. For the same sequence, the Kd was at least 20 µM with HLA-A*69:01 (setting [10]); at least 20 µM with HLA-B*07:02 [5] (setting [10]); at least 20 µM in the assay with HLA-B*08:01 (setting [10]); at least 20 µM with HLA-B*15:01 (setting [10]); at least 20 µM with HLA-B*27:05 (setting [10]); 0.0499 µM in the assay with HLA-B*40:01 (setting [10]). Besides, the Kd in the assay with HLA-B*44:02 (setting [10]) and with HLA-B*58:01 (setting [10]) was at least 20 µM throughout.

Consider FPLCLSTTSQ, for which the Kd with HLA-B*07:02 [6] is 0.179 µM; with HLA-B*35:01 (setting [8]), 0.514 µM; with HLA-B*51:01, at least 39.6 µM; with HLA-B*53:01, 0.0363 µM.
